{
  "source": "patent US6710030",
  "test_in_all_cases": "cell-based or functional assay",
  "key": {"[1]": {"biological_target": "integrin αvβ5 on cells (T24, T24-β3 neg., OVCAR-5) (human) (UniProt P06756)", "sequence (P06756 31-1048, chain 1 of 2)": "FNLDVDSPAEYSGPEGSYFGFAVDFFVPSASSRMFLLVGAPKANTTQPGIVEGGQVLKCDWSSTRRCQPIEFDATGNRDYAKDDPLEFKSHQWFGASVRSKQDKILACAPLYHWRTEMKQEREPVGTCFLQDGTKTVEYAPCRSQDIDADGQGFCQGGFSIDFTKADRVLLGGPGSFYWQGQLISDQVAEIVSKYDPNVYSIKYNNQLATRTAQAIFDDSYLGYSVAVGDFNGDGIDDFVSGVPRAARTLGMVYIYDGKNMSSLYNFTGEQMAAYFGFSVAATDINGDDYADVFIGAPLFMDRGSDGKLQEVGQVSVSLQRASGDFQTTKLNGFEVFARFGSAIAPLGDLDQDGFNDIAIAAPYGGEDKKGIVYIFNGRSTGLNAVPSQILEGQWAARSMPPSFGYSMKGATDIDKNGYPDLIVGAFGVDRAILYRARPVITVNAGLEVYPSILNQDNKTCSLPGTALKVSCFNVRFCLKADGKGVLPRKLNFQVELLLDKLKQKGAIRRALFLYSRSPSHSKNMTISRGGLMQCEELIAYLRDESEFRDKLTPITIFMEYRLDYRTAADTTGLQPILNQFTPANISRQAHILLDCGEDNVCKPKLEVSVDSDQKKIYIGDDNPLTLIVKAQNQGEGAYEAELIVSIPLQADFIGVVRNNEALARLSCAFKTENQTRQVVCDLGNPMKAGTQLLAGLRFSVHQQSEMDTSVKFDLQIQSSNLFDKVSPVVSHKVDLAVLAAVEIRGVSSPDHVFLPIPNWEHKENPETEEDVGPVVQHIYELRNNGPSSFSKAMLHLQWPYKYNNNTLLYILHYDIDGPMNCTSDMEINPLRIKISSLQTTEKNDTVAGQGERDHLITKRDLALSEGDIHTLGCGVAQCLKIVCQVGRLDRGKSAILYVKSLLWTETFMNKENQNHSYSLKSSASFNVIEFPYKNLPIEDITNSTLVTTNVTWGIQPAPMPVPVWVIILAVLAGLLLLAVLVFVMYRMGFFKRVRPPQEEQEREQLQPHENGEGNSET", "sequence (P18084 24-799, chain 2 of 2, further chain)": "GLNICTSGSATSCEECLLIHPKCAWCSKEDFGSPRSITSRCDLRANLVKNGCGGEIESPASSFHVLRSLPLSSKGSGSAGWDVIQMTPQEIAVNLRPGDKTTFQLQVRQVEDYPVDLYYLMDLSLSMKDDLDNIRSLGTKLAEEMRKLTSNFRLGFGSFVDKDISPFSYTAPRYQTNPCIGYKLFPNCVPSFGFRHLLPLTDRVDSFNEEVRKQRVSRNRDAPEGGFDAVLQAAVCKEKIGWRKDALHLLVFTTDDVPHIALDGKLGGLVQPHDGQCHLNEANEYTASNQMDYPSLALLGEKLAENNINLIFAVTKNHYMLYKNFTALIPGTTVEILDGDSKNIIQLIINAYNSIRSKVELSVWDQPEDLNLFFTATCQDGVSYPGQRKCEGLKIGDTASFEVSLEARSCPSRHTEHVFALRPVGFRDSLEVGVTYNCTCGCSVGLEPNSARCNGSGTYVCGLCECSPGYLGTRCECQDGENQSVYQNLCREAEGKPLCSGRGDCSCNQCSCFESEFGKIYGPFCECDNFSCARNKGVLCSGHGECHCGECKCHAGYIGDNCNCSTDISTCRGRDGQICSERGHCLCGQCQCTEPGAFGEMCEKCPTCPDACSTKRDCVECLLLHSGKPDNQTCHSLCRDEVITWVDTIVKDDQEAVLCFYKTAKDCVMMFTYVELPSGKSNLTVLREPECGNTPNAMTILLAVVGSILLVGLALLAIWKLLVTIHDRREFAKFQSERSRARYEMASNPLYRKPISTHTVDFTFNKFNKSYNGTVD"}, "[2]": {"biological_target": "integrin αvβ3 on cells (T24, MDA-MB-435, β3-transfected 293 cells) (human) (UniProt P06756)", "sequence (P06756 31-1048, chain 1 of 2)": "as the sequence (P06756 31-1048, chain 1 of 2) above", "sequence (P05106 27-788, chain 2 of 2, further chain)": "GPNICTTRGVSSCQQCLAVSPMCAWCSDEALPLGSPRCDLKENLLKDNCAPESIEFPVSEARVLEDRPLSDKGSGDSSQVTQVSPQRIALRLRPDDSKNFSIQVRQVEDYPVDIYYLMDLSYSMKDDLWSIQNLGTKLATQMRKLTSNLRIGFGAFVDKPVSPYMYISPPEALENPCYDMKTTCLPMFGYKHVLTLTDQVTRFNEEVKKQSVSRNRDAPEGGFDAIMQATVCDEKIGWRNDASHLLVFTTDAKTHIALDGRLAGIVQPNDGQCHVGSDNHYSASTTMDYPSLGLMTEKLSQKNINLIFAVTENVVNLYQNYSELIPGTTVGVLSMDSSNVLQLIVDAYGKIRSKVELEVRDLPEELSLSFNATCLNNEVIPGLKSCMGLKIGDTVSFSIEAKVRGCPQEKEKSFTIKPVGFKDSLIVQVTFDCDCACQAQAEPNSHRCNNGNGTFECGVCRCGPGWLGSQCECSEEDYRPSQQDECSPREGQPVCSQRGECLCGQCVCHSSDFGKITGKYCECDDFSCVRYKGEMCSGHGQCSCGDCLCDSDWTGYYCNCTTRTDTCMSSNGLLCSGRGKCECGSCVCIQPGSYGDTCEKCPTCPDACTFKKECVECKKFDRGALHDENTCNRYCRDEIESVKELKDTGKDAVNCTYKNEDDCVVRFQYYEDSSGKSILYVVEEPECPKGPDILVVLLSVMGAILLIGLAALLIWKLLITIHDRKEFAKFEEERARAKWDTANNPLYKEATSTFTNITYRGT"}, "[3]": {"biological_target": "integrin receptors on the surface of MDA-MB-435 cells"}},
  "data": [
    {"substance": "P1F6, anti-αvβ5 monoclonal antibody", "values": [
      {"measurement": "inhibition of adhesion of T24-β3 neg. cells to immobilized vitronectin", "setting": "[1]", "value": 80, "unit": "%"},
      {"measurement": "inhibition of adhesion of T24 cells to immobilized vitronectin", "setting": "[1]", "value": "< 40", "unit": "%"}
    ]},
    {"substance": "7E3, murine monoclonal antibody against (GP)IIb/IIIa that also binds αvβ3", "values": [
      {"measurement": "inhibition of adhesion of T24 cells to immobilized vitronectin", "setting": "[2]", "value": "< 40", "unit": "%"}
    ]},
    {"substance": "RGD peptide GRGDSP", "values": [
      {"measurement": "inhibition of binding of MDA-MB-435 cells to immobilized CN (IC50)", "setting": "[3]", "value": 400, "unit": "µM"}
    ]}
  ]
}
